Target: RSC complex (budding yeast (S. cerevisiae) (endogenous in BJ3505)) (UniProt P32597)
Experiment: BLI

UniProt P32597, sequence (P32597 whole entry, looked up, one chain of several): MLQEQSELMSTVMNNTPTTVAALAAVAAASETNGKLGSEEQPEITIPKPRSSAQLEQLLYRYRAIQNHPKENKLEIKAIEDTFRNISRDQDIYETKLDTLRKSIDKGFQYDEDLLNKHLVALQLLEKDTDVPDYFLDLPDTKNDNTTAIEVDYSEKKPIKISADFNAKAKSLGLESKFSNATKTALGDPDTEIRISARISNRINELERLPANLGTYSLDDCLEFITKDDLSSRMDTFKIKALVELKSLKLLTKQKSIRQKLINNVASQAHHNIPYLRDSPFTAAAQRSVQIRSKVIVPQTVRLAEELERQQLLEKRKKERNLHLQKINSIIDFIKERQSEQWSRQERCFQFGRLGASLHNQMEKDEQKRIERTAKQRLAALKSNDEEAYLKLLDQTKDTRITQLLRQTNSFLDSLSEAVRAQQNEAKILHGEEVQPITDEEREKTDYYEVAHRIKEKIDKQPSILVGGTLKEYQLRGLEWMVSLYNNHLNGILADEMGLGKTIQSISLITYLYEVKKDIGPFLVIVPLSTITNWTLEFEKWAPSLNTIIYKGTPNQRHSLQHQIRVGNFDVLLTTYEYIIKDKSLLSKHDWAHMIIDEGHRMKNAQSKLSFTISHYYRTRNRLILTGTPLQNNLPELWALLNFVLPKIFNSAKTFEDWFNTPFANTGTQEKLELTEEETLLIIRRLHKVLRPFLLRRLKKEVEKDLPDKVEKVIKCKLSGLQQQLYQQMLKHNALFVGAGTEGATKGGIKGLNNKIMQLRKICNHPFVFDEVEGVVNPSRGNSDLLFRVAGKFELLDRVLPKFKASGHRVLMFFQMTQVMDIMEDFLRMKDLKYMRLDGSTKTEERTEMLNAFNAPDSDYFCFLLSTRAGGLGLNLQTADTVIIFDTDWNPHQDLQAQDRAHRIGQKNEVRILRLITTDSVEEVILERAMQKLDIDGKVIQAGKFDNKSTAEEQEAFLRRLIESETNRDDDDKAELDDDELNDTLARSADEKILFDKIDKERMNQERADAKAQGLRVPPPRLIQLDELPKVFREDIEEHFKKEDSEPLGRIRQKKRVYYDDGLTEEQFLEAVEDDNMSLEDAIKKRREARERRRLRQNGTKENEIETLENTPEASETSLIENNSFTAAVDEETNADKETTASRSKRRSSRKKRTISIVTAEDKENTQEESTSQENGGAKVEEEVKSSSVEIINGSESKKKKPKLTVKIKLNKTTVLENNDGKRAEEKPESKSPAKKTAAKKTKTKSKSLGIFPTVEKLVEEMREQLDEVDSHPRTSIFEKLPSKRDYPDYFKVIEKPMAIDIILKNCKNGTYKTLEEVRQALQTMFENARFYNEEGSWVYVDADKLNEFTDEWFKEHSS

“SUMOylated nucleosome core particles (from UniProt P68431 1-136; P62805 1-103; P04908 1-130; P02281 6-126) (complex)” was tested, and the fold affinity against unmodified NCPs was 2 fold.

Reference: paper doi:10.1101/2020.03.02.972562
